Key:
Saccharomyces cerevisiae [1] = assay: protein stability index of tFT-peptide fusion in deletion strain of DAS1 (PSI (0-1 scale)); higher = more stable (slower turnover)
Protocol: (§1)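 MPS profiling in S. cerevisiae of two library types built from selected 12-aa C-degron peptides (IN1, IN2, LN1, LN3, VN2, R1-R5, W1-W3, Atg1 and Rpa12 C-termini): saturation mutagenesis libraries and C-terminal +1 capping libraries (13 aa). Each peptide is fused to the C-terminus of a sfGFP-mCherry timer, after a GGGS linker. Cells are FACS-sorted into 8 mCherry/sfGFP bins and sequenced. PSI runs from 0 (unstable) to 1 (stable), measured once in wild type and in the das1Δ or doa10Δ background.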

Saccharomyces cerevisiae [2] = assay: protein stability index of tFT-peptide fusion in wild type (PSI (0-1 scale)); higher = more stable (slower turnover); conditions: genetic background: wild type
Protocol: as §1
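Throughout, for protein stability index of tFT-peptide fusion in deletion strain of DAS1: PSI is a weighted mean of each variant's read distribution over the sorted stability bins, computed only for variants having over 10 reads in total.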
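Throughout, for protein stability index of tFT-peptide fusion in wild type: PSI derived as read-weighted mean over the 8 sorting bins, only variants exceeding 10 total reads kept, mCherry placed adjacent to the peptide and sfGFP distal.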

Sequence	protein stability index (Saccharomyces cerevisiae [1])	protein stability index (Saccharomyces cerevisiae [2])
GSLAASFWRVVG	0.689	0.147
GVVYLSCVACIN	0.0346	0.0144
HKHKKGQKQKIN	0.604	0.114
KFHKKGQKQKIN	0.576	0.139
KKGKKGQKQKIN	0.592	0.11
KKHGKGQKQKIN	0.707	0.0862
KKHKKGAKQKIN	0.608	0.0819
KKHKKGHKQKIN	0.592	0.111
KKHKKGQFQKIN	0.618	0.112
KKHKKGQKCKIN	0.59	0.153
KKHKKGQKQKFN	0.635	0.307
KKHKKGQKQKHN	0.653	0.439
KKHKKGQKQKIM	0.609	0.179
KKHKKGQKQKINE	0.662	0.635
KKHKKGQKQKIV	0.596	0.136
KKHKKGQKQKLN	0.602	0.133
KKHKKGQKQKTN	0.619	0.472
KKHKKGQKQNIN	0.54	0.618
KKHKKGQKQRIN	0.642	0.127
KKHKKGQKQVIN	0.629	0.579
KKHKKGQKQYIN	0.678	0.24
KKHKKLQKQKIN	0.602	0.054
KKHKKNQKQKIN	0.585	0.217
KKHKKRQKQKIN	0.587	0.0558

Sequence	protein stability index (Saccharomyces cerevisiae [1])	protein stability index (Saccharomyces cerevisiae [2])
KKHKKVQKQKIN	0.619	0.165
KKHKTGQKQKIN	0.628	0.0826
KKHWKGQKQKIN	0.594	0.112
KRGAVGGWRLVG	0.648	0.165
KSHKKGQKQKIN	0.6	0.119
KYHKKGQKQKIN	0.595	0.0981
LIILRQKMNHQN	0.661	0.152
LIVYLSCVACIN	0.0335	0.0145
LKGLRQKMNHQN	0.669	0.196
LKIKRQKMNHQN	0.683	0.208
LKILMQKMNHQN	0.687	0.244
LKILQQKMNHQN	0.676	0.163
LKILRDKMNHQN	0.677	0.232
LKILRKKMNHQN	0.662	0.224
LKILRQFMNHQN	0.664	0.192
LKILRQKKNHQN	0.678	0.312
LKILRQKLNHQN	0.676	0.187
LKILRQKMIHQN	0.682	0.196
LKILRQKMMHQN	0.62	0.232
LKILRQKMNHFN	0.675	0.21
LKILRQKMNHGN	0.672	0.47
LKILRQKMNHHN	0.688	0.247
LKILRQKMNHQF	0.678	0.255
LKILRQKMNHQH	0.68	0.231

Sequence	protein stability index (Saccharomyces cerevisiae [1])	protein stability index (Saccharomyces cerevisiae [2])
LKILRQKMNHQNC	0.661	0.606
LKILRQKMNHQNQ	0.685	0.623
LKILRQKMNHWN	0.666	0.216
LKILRQKMSHQN	0.682	0.37
LKILRQKMWHQN	0.657	0.238
LKILRQTMNHQN	0.677	0.224
LKILRVKMNHQN	0.646	0.187
LKILTQKMNHQN	0.688	0.276
LKILWQKMNHQN	0.67	0.206
LKIWRQKMNHQN	0.687	0.176
LKIYRQKMNHQN	0.689	0.182
LRGAVGGWRLVG	0.681	0.149
LSILRQKMNHQN	0.675	0.127
LSLAASFWRVVG	0.664	0.129
LVKYLSCVACIN	0.365	0.09
LVMYLSCVACIN	0.135	0.0125
LVSYLSCVACIN	0.252	0.0799
LVVVLSCVACIN	0.0377	0.0126
LVVWLSCVACIN	0.0381	0.0122
LVVYCSCVACIN	0.0283	0.0182
LVVYLQCVACIN	0.0353	0.0274
LVVYLSAVACIN	0.0365	0.0153
LVVYLSCSACIN	0.0361	0.0177
LVVYLSCVACDN	0.272	0.249

Sequence	protein stability index (Saccharomyces cerevisiae [1])	protein stability index (Saccharomyces cerevisiae [2])
LVVYLSCVACIH	0.0535	0.0123
LVVYLSCVACIT	0.0345	0.0143
LVVYLSCVACKN	0.0769	0.034
LVVYLSCVADIN	0.168	0.108
LVVYLSCVAGIN	0.154	0.13
LVVYLSCVANIN	0.0788	0.0173
LVVYLSCVAQIN	0.0252	0.014
LVVYLSCVKCIN	0.319	0.146
LVVYLSEVACIN	0.286	0.264
LVVYLTCVACIN	0.0371	0.0129
LVVYLYCVACIN	0.0269	0.0123
MDKRNHLIKLLN	0.702	0.111
MKILRQKMNHQN	0.66	0.163
MRGAVGGWRLVG	0.653	0.146
MRWRVGLWRGAS	0.727	0.143
PCKRNHLIKLLN	0.614	0.112
PCLAASFWRVVG	0.68	0.128
PDKCNHLIKLLN	0.586	0.209
PDKQNHLIKLLN	0.593	0.189
PDKRCHLIKLLN	0.596	0.0642
PDKRNHAIKLLN	0.603	0.186
PDKRNHDIKLLN	0.606	0.407
PDKRNHLIKFLN	0.583	0.112
PDKRNHLIKLKN	0.599	0.273

Sequence	protein stability index (Saccharomyces cerevisiae [1])	protein stability index (Saccharomyces cerevisiae [2])
PDKRNHLIKLLM	0.586	0.112
PDKRNHLIKLLV	0.618	0.118
PDKRNHLIKLLY	0.587	0.328
PDKRNHLIKLYN	0.599	0.343
PDKSNHLIKLLN	0.652	0.157
PIKRNHLIKLLN	0.622	0.157
PNLAASFWRVVG	0.694	0.144
PQLAASFWRVVG	0.7	0.152
PRGAVGGWRLVG	0.671	0.169
PRLAASFWRVVG	0.691	0.197
PSIAASFWRVVG	0.695	0.143
PSLAACFWRVVG	0.675	0.141
PSLAAHFWRVVG	0.694	0.155
PSLAAIFWRVVG	0.645	0.138
PSLAASFPRVVG	0.66	0.659
PSLAASFSRVVG	0.631	0.665
PSLAASFWPVVG	0.706	0.656
PSLAASFWRVAG	0.671	0.256
PSLAASFWRVVC	0.679	0.119
PSLAASFWRVVD	0.698	0.48
PSLAASFWRVVGC	0.685	0.664

Source: the supplement of paper PMC10724198
